Data as given in patent publication US20180051287, “COMPOSITIONS AND METHODS FOR INHIBITING FACTOR D” (Vitrisa Therapeutics, Inc., published 2018).

Tests used:
complement factor D (fD) [1] = molecular target: T1, complement factor D (fD) (Homo sapiens, UniProt P00746 SEQ:1-228); assay: inhibition; alternative-pathway hemolysis of rabbit RBC, C1q-depleted human serum, room temperature; details: protein: extract; tags: endogenous fD in C1q-depleted human serum; label: Dy650-N30S.R.OMe 2'-OMe oligo hybridized to 3' constant region (flow assays)
T1 sequence (P00746 26-253): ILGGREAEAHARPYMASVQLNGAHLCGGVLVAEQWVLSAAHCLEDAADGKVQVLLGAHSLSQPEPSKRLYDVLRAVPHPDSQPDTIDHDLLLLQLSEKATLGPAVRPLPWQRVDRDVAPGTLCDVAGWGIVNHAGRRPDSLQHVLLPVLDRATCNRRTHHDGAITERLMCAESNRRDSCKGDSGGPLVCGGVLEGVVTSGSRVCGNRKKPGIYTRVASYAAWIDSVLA
Procedure: Briefly, citrated rabbit blood was centrifuged at 500×g for 5 minutes at room temperature. The top plasma fraction was removed and the volume was replaced with 1× Veronal buffer containing 0.1% gelatin (prepared from 5× Veronal buffer, Lonza #12-624E and 2% gelatin solution, Sigma-Aldrich, G1393). The red blood cells were washed two more times. The washed rabbit red blood cells were diluted in 1× Veronal buffer to a concentration of 2×10⁹ cells/mL (RBCs).
In V-bottom 96-well plates the following reagents were added to a final volume of […] of 1× Veronal buffer with 0.1% gelatin, 100 μL aptamer, 30 μL of C1q-depleted human serum and 20 μL RBCs. This mixture was incubated for 25 minutes at room temperature, then the reaction was stopped by the addition of 5 μL of 500 mM EDTA. The plate was centrifuged for 5 minutes at 500×g at room temperature, then 100 μL of supernatant was removed and the extent of RBC lysis was determined by measuring absorbance at 405 nm.
C1-C3 identified in Example 1, a non-specific control oligo (C8), and one anti-fD Fab antibody fragment as described in Example 1 (AFD) were incubated with C1q-depleted human serum to allow binding to fD present in the serum, then assayed for the ability to inhibit fD-dependent lysis of rabbit red blood cells (FIG. 11). […] IC₅₀ values for C1-C3, C8 and AFD are depicted in Table 14.

complement factor D (fD) [2] = molecular target: T1, complement factor D (fD); assay: FP filter; double-filter nitrocellulose binding; 100 nM DNA, 5 uM fD; details: tags: 6xHis; label: end-labeled; potential G4
Procedure: (§1) Specificity of binding was assessed by measuring binding to casein. In all binding reactions, the oligonucleotide concentration was 100 nM, the fD concentration 5 μM and the casein concentration 20 μM.

complement factor D (fD) [3] = molecular target: T1, complement factor D (fD); assay: FP filter; not above naive library (3.6%); 100 nM DNA, 5 uM fD; details: tags: 6xHis, label: end-labeled
Procedure: as §1

B1: C1 (Aptamer 1) (ssRNA)
RNA: GGGAGUGUGUACGAGGCAUUAGGCCGCCACCCAAACUGCAGUCCUCGUAAGUCUGCCUGGCGGCUUUGAUACUUGAUCGCCCUAGAAGC
modifications: 2'-F G; 2'-OMe A, C, U
- IC50 (complement factor D (fD) [1]): 5.1 nM

B2: C2 (Aptamer 2) (ssRNA)
RNA: GGGAGUGUGUACGAGGCAUUAGUCCGCCGAAGUCUUUUGGCUCGGUUUUUUCAAGGUCGGCGGCUUUGAUACUUGAUCGCCCUAGAAGC
modifications: 2'-F G; 2'-OMe A, C, U
- IC50 (complement factor D (fD) [1]): 3.3 nM

B3: C3 (Aptamer 3) (ssRNA)
RNA: GGGAGUGUGUACGAGGCAUUAGGCCGCCACCUCGUUUGAUUGCGGUUGUUCGGCCGCGGGCGGCUUUGAUACUUGAUCGCCCUAGAAGC
modifications: 2'-F G; 2'-OMe A, C, U
- IC50 (complement factor D (fD) [1]): 7 nM

B4: Aptamer 4 (rank 1) (ssDNA)
DNA: GTGACGACTGACATATCTGCTCCGAGGTTATTGGGGTTGGGGCCTGGGCGATTGGGGCCTCGTAGTTGAGTCTGAGTGCT
- binding signal (complement factor D (fD) [2]): 58.3 % bound

B5: Aptamer 5 (rank 2) (ssDNA)
DNA: GTGACGACTGACATATCTGCGTTTGGGGTTGGGGCCTGGGAGTTTGGGGAGCAGAAAGGACGTAGTTGAGTCTGAGTGCT
- binding signal (complement factor D (fD) [2]): 63 % bound

B6: Aptamer 15 (rank 12) (ssDNA)
DNA: GTGACGACTGACATATCTGCTGCTTCCAGCGGTCATGATATGCACTGTCTGAAGCTCGGTCGTAGTTGAGTCTGAGTGCT
- binding signal (complement factor D (fD) [3]; non-G4): 0.4 % bound

B7: Aptamer 27 (rank 24) (ssDNA)
DNA: GTGACGACTGACATATCTGCGGGCGTCTGAGCGCATGGATGACCCACCGACAGATTGCGGCGTAGTTGAGTCTGAGTGCT
- binding signal (complement factor D (fD) [3]; non-G4): 0.7 % bound

B8: Aptamer 8 (rank 5) (ssDNA)
DNA: GTGACGACTGACATATCTGCTATTTTGGGGCCTGGGTGTTGGGGATTGGGGACTATGTGTCGTAGTTGAGTCTGAGTGCT
- binding signal (complement factor D (fD) [2]): 60.3 % bound

B9: Aptamer 7 (rank 4) (ssDNA)
DNA: GTGACGACTGACATATCTGCGGCGGTTGGGGTCGAAGGGCGAGGGGTGGGAGGTCGCCGTAGTTGAGTCTGAGTGCT
- binding signal (complement factor D (fD) [3]; potential G4): 3.2 % bound

B10: Aptamer 10 (rank 7) (ssDNA)
DNA: GTGACGACTGACATATCTGCCCTATAGGGGTGTGGGCGAGGGGTGGGTGGTAGGGCGGCTCGTAGTTGAGTCTGAGTGCT
- binding signal (complement factor D (fD) [3]; potential G4): 1.9 % bound

B11: Aptamer 12 (rank 9) (ssDNA)
DNA: GTGACGACTGACATATCTGCAAAAGTTAGATTGACATGGTATGCACCGTCTGAGGTTGGTCGTAGTTGAGTCTGAGTGCT
- binding signal (complement factor D (fD) [3]; non-G4): 1.6 % bound
